Measurements as given in patent publication US20230151111A1 (AKESO BIOPHARMA, published 2023).

T1: human NT5E-Biotin (human, UniProt P21589 27-552, limits assumed, biotin label, site not stated)
T1 construct: Captured on streptavidin-coated plates; also called human NTSE-Biotin
T1 sequence (looked up): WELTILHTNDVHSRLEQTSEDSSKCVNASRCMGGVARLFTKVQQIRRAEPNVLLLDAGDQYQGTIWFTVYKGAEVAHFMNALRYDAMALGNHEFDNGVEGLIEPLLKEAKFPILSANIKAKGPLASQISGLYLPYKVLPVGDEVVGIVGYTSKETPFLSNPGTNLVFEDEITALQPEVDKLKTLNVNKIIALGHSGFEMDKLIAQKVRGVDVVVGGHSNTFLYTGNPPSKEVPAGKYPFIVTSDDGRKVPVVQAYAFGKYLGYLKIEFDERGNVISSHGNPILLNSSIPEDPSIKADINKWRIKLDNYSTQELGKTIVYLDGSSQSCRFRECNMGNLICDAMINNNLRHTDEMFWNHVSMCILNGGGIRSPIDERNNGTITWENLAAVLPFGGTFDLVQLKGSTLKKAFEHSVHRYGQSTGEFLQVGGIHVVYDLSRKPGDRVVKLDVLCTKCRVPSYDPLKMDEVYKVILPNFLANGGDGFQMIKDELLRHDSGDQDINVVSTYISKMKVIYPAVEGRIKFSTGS

T2: CD73 on cell membrane surface (MDA-MB-231, U87-MG) (human, UniProt P21589 27-549)
T2 construct: whole, on cells; also called NT5E
T2 sequence (looked up): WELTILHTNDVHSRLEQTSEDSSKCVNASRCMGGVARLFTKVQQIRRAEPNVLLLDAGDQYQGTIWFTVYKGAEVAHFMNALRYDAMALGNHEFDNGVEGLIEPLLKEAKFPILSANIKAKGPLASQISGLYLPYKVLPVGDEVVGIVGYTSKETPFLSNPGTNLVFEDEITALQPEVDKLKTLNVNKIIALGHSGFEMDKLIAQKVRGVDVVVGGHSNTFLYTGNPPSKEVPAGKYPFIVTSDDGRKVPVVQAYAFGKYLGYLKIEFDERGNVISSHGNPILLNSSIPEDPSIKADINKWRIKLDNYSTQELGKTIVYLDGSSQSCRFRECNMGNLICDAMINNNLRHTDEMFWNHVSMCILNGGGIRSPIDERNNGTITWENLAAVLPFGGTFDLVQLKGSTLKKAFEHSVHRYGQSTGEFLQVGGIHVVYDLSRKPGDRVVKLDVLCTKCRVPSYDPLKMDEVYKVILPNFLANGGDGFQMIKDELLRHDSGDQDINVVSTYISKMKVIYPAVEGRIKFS

B1: P1D7V01 (bispecific antibody, human IgG1, kappa)
heavy: not shown
light: DIQMTQSPSSMSASVGDRVTFTCRASQDINTYLSWFQQKPGKSPKTLIYRANRLVSGVPSRFSGSGSGQDYTLTISSLQPEDMATYYCLQYDEFPLTFGAGTKLELKRTVAAPSVFIFPPSDEQLKSGTASVVCLLNNFYPREAKVQWKVDNALQSGNSQESVTEQDSKDSTYSLSSTLTLSKADYEKHKVYACEVTHQGLSSPVTKSFNRGEC
notes: Morrison form IgG-scFv
B2: P1D7V03 (bispecific antibody, human IgG1, kappa)
heavy: not shown
light: B1 light
notes: Morrison form IgG-scFv

Experiments:
[1] = target: T3, PD-1 on 293T-PD1 cell surface (human, UniProt Q15116 25-288); assay: flow cytometry, 293T-PD1 cells; antibody 0.41 nM
T3 construct: whole, on cells
Protocol: (§1) 500 μL of PBSA was added, and the mixture was centrifuged at 5600 rpm for 5 min to remove the supernatant. […] The system was mixed gently and uniformly, and then was incubated on ice for 1 h. Then 500 μL of PBSA was added, and the mixture was centrifuged at 5600 rpm for 5 min to remove the supernatant. […] 500 μL of PBSA was added, and the mixture was centrifuged at 5600 rpm for 5 min to remove the supernatant. At last, 200 μL of PBSA was added to resuspend cell precipitates, and the mixture was transferred to a flow tube for FACSCalibur detection.

[2] = target: T3, PD-1 on 293T-PD1 cell surface; assay: flow cytometry, 293T-PD1 cells; antibody 3.70 nM
Protocol: as §1

[3] = target: T3, PD-1 on 293T-PD1 cell surface; assay: flow cytometry, 293T-PD1 cells; antibody 1.23 nM
Protocol: as §1

[4] = target: T3, PD-1 on 293T-PD1 cell surface; assay: flow cytometry, 293T-PD1 cells; antibody 0.05 nM
Protocol: as §1

[5] = target: T1, human NT5E-Biotin; assay: ELISA, NT5E-biotin on streptavidin
Protocol: A microplate was coated with streptavidin at 2 μg/mL and then incubated at 4° C. overnight. After incubation, the microplate coated with streptavidin was washed once with PBST, and blocked with a PBS solution containing 1% BSA as a microplate blocking solution at 37° C. for 2 h. After blocking, the microplate was washed 3 times with PBST. Then, 0.5 μg/mL antigen human NTSE-Biotin was added and incubated at 37° C. for 30 min. Then, the plate was washed 3 times with PBST. The antibodies serially diluted with PBST solution (the dilution gradients for the antibody are shown in Table 3) were added to wells of the microplate. The microplate containing the test antibodies was incubated at 37° C. for 30 min, and then washed 3 times with PBST. […] After incubation, the plate was washed 4 times with PBST, TMB (Neogen, 308177) was added in the dark for chromogenesis for 5 min, and then a stop solution was added to terminate chromogenic reaction. The microplate was put into a microplate reader immediately, and the OD value of each well in the microplate was read at 450 nm. The data were analyzed and processed by SoftMax Pro 6.2.1.

[6] = target: T3, PD-1 on 293T-PD1 cell surface; assay: flow cytometry, 293T-PD1 cells; antibody 0.14 nM
Protocol: as §1

[7] = target: T3, PD-1 on 293T-PD1 cell surface; assay: flow cytometry, 293T-PD1 cells
Protocol: as §1

[8] = target: T2, CD73 on cell membrane surface …; assay: flow cytometry, MDA-MB-231 cells; antibody 33.33 nM
Protocol: (§2) MDA-MB-231 cells in logarithmic phase were digested with conventional trypsin and transferred to a 1.5 mL centrifuge tube at 3×10⁵ cells/tube. 500 μL of PBSA was added, and the mixture was centrifuged at 5600 rpm for 5 min to remove the supernatant. […] The system was mixed gently and uniformly, and then was incubated on ice for 1 h. Then 500 μL of PBSA was added, and the mixture was centrifuged at 5600 rpm for 5 min to remove the supernatant. […] 500 μL of PBSA was added, and the mixture was centrifuged at 5600 rpm for 5 min to remove the supernatant. At last, 200 μL of PBSA was added to resuspend cell precipitates, and the mixture was transferred to a flow tube for FACSCalibur detection.

[9] = target: T2, CD73 on cell membrane surface …; assay: flow cytometry, MDA-MB-231 cells
Protocol: as §2

T3 sequence (Q15116 25-288): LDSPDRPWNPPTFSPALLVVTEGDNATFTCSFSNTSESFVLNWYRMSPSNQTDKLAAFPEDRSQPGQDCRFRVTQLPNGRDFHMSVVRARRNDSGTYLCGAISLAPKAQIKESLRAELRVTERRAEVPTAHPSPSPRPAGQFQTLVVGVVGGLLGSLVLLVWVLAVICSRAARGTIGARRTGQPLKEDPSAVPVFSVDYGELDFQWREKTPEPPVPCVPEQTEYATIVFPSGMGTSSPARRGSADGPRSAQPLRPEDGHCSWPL

| Binder | FACS signal [1] | FACS signal [2] | FACS signal [3] | FACS signal [4] | EC50 [5] [nM] | FACS signal [6] | EC50 [7] [nM] | FACS signal [8] | EC50 [9] [nM] |
| --- | --- | --- | --- | --- | --- | --- | --- | --- | --- |
| B1 | 151 | 531 | 307 | 26.6 | 0.063 | 58.6 | 1 | 526 | 1.38 |
| B2 | 118 | 385 | 289 | 24.1 | 0.068 | 49.2 | 1.38 | 576 | 2.01 |
